Assay results published in the supplement of paper PMC9170038.

Tested on: MS2 coat protein
Experiment: apparent KD of MS2 coat protein; designed switch direction (-1 OFF switch, 1 ON switch): -1; higher = weaker reporter binding
Procedure, shortened: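 SNAP-549-labelled MS2 coat protein was titrated, doubling from 0.7 or 1.5 nM to 3 µM, over designed RNA switches transcribed on Illumina chips by stalled E. coli RNA polymerase. Runs were done without input, with 200 uM small-molecule ligand, or with an oligonucleotide input. Apparent KD is the per-design median over clusters of curve-fitted normalised fluorescence.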

[1] = input ligand: microRNA oligo, concentration not stated
[2] = Eterna round: R95, input ligand: microRNA oligo, concentration not stated
[3] = Eterna round: R95, input ligand: FMN 200 uM
[4] = Eterna round: R95, input ligand: none

| Sequence | apparent KD of MS2 coat protein (input ligand: FMN 200 uM) [nM] | apparent KD of MS2 coat protein [1] [nM] | apparent KD of MS2 coat protein (input ligand: none) [nM] | apparent KD of MS2 coat protein [2] [nM] | apparent KD of MS2 coat protein [3] [nM] | apparent KD of MS2 coat protein [4] [nM] |
| --- | --- | --- | --- | --- | --- | --- |
| CCUAGUUGGUAAGGAUAUCCUACACUAUUCUGACCCGUGCAAGCUACAUGAGGAUCACCCAUGUGGGAGAAGGUGCGUUAACGU [Design 9] (Eterna round: R96, puzzle: Exclusion NG 2) | 31.2 | 23.4 | 26.7 | – | – | – |
| CGAUAUUAUGUCAGGAUAUACAUUGCGAAAGCAAUGUAGAAGGGACAUGAGGAUCACCCAUGUUCCUACUAUCG [Omei A 1] (puzzle: Brourd's mod of Exclusion 4) | – | – | – | 11.9 | – | – |
| CUGUGUAGACAGGAUAUGCUGUACAAAAGUACAGCAGAAGGGUCUACAUGAGGAUCACCCAUGUAUACCUCAUG [)mei Ex6 B25] (Eterna round: R97, puzzle: Exclusion 6) | 735 | – | 88.8 | – | – | – |
| UAAAUGUCAGGAUAUUGUUAAUUUAGUUGUUUGUAUUAGUUCGAGAAGGGACAUGAGGAUCACCCAUGUUAAAA [Ex4 #52] (Eterna round: R97, puzzle: Exclusion 4) | 37.6 | – | 31 | – | – | – |
| CUUUACAAGCUAAGAUCCUACAUGAGGAUCACCCAUGUGGUCCGGUGACGUGAGUCACCGGACUUAGCUCGUCUUGU [salish99_S_TOV1_R5_096] (Eterna round: R97, puzzle: Sensor, turn-off variant 1) | 41.5 | – | 42.6 | – | – | – |
| GGACCGAUAGGAUAUGUCGUUGCAUACAUGAGGAUCACCCAUGUGAACCCUUGGUGAACUGCAGAAGGAUUGCGCA [Eternabot (L1) Solution 41] (Eterna round: R97, puzzle: Exclusion 5) | 240 | – | 221 | – | – | – |
| ACUGGGAGAGGAUAUACAUGAGGAUCACCCAUGUGAAAUUAUAGUGAGGAAAUGAAAAGUAGAAGGCUCUUAGA [Mod of Mat 14 - Jieux - Exclusion 3] (Eterna round: R97, puzzle: Exclusion 3) | 151 | – | 68.4 | – | – | – |
| UUUCAUCAUGUAGGAUAUGCGUGGCAAAGCUAUGCAGAAGGACAUGAGGAUCACCCAUGUUCUAGCGUCUGCGUACAGAUGCUA [Mat - Exclusion NG 1 - Mod of JL - D73] (Eterna round: R96, puzzle: Exclusion NG 1) | 404 | 43.2 | 68 | – | – | – |
| AGGAAGCAAGGAUAUACGAGGAGAAGGUGUAGAUUUAAAGGACAUGAGGAUCACCCAUGUAGAAGGUGCGAGAA [JR_Exclu2_Sub047] (puzzle: Exclusion 2) | – | – | – | 31.8 | 62.7 | 41.4 |
| UUGAUUCAUUCCUCCAUAAACAUGAGGAUCACCCAUGUAAGUGAGGAUAUAGUUUGUUUAGUAUACUAGAAGGCACUUAGAUAU [JR_ExcNG3_Sub046] (Eterna round: R96, puzzle: Exclusion NG 3) | 12.7 | 9.61 | 12.6 | – | – | – |
| AAAAAGUUGAGAGGAUAUGGUGCCGAAACGGUGCUAGAAGGCUUUACAAAAAAACAUGAGGAUCACCCAUGUUCAUGUAGAGAA [AK ExNG1-1.1] (Eterna round: R96, puzzle: Exclusion NG 1) | 16.3 | 13.3 | 15.6 | – | – | – |
| AAGUAUAGAGGAUAUAGUAAGUACUACAUGAGGAUCACCCAUGUUCUUCAUUACGUAUUUCUAGAAGGCUGAUAAA [EX-5 Malc#25] (puzzle: Exclusion 5) | – | – | – | 369 | – | – |
| GCCAGAGCAGGAUAUCUAAUGUAUCACAUGAGGAUCACCCAUGUCCAGCGAAAGCUGGAGGGAGAAGGGCUCUGGC [Fiskers Ex 5 - 20] (puzzle: Exclusion 5) | – | – | – | 105 | 49.9 | 106 |
| AGGUGUAGAGGAUAUCUAUACUCCCACAUGAGGAUCACCCAUGUCCUGGUCACCAAGGACGGAGAAGGCUACACCA [Omei Ex5 D22] (Eterna round: R97, puzzle: Exclusion 5) | 130 | – | 68.3 | – | – | – |
| AAGAACUGAGGAUAUGCAAAAGGGAAAGCUGAUCCUCAUCUACAUGAGGAUCACCCAUGUAGAAGGCGGGAAAU [Aveerve] (Eterna round: R96, puzzle: Exclusion 2) | 108 | 50.7 | 74 | – | – | – |
| CAGUACUGAGGAUAUACAUGAGGAUCACCCAUGUGUUCCAGCUAGGAAACUAGCAAAUGUAGAAGGCAGUACUG [Salish 065 m8] (Eterna round: R97, puzzle: Exclusion 3) | 45.1 | – | 323 | – | – | – |
| AGGCGGAAAGUAAGGAUAUCUUGACCAAAGGGUUGAGAGAAGGUACAUGAGGAUCACCCAUGUGGUGACCGCCA [Morphing Claw (Vienna)] (Eterna round: R97, puzzle: Brourd's mod of Exclusion 4) | 228 | – | 685 | – | – | – |

| Sequence | apparent KD of MS2 coat protein (input ligand: FMN 200 uM) [nM] | apparent KD of MS2 coat protein [1] [nM] | apparent KD of MS2 coat protein (input ligand: none) [nM] | apparent KD of MS2 coat protein [2] [nM] | apparent KD of MS2 coat protein [3] [nM] | apparent KD of MS2 coat protein [4] [nM] |
| --- | --- | --- | --- | --- | --- | --- |
| UAUAACCGAGGAUAUACAUGAGGAUCACCCAUGUAAUGUAGUAUAAUAUAUGUAAAAUGUAGAAGGUGGGAUGU (Eterna round: R97, puzzle: Exclusion 3) | 44.3 | – | 54.9 | – | – | – |
| GAAAAGAGAGGAUAUACUUGAGGAUCACCCAAGUAGGCGGUAACCGCCACGGGCCAGAGUAGAAGGCUCAAAAC [Beceanlave] (Eterna round: R97, puzzle: Exclusion 3) | 141 | – | 32.2 | – | – | – |
| GUGUACGUAGGAUAUGCUGGAAUCUAGCGAAGCUAGGUUCCACAUGAGGAUCACCCAUGUAGAAGGGCGUACAC [Dot plot directed A v9] (puzzle: Exclusion 2) | – | – | – | 132 | – | – |
| GAUCAUGCAGGAUAUACAUGGAUCAUGAAAACAUGAAUUUCACAUGAGGAUCACCCAUGUAGAAGGGCAUGAUC [Omei Ex2 A11] (Eterna round: R97, puzzle: Exclusion 2) | 13.9 | – | 293 | – | – | – |
| UGAGAGUCAGGAUAUCGAAGGUAGUGGAGAGGAGUGUGGUACGAGAAGGGACAUGAGGAUCACCCAUGUAGGUG [JR_Exclusion4)Sub009] (puzzle: Exclusion 4) | – | – | – | 420 | – | – |
| UUCGUGCAGCUUUGCUGUACGCGUACAUGAGGAUCACCCAUGUAGGAUAUGGUAGGCAAAGCUUACUAGAAGGAUAUAGUGAUC [Mat - Exclusion NG 3 - Mod of JL - D78] (Eterna round: R96, puzzle: Exclusion NG 3) | 66.7 | 41.7 | 64.5 | – | – | – |
| CUGGUCCGAGGAUAUAUUUUGUGAAACAUGAGGAUCACCCAUGUAAUAAAAUGGAUGUAAAUAGAAGGCGGACUAG [Mat - Exclusion 5 - JL mod - D40] (puzzle: Exclusion 5) | – | – | – | 29 | 26.7 | 30 |
| UAUUAACAAGCUUGAUCCCACAUGAGGAUCACCCAUGUGCUCGUCUUAUAAGGUACUGUGACGAAAGUCACGGUACC [Sensor 3, v1 - 86] (puzzle: Sensor v3, turn-off variant 1) | – | – | – | 206 | 89.9 | 91.2 |
| UUUAGUUCAGGAUAUGUAGUUUUAAACAUGAGGAUCACCCAUGUAGAACCUGAUCCUGCUACAGAAGGGAACAUUU [Mat - Exclusion 5 - Eli Mod - D14] (Eterna round: R97, puzzle: Exclusion 5) | 32 | – | 18.2 | – | – | – |
| CCAGCAAAUGUGAGGAUAUGCUGGUCCUUGGAUCAGCAGAAGGCACAUGAGGAUCACCCAUGUGGGAUAGCUGG [Eli bmx4 4.59] (Eterna round: R97, puzzle: Brourd's mod of Exclusion 4) | 412 | – | 194 | – | – | – |
| UAUAUAUAGUAAGGAUAUGUAUAUAUUUUAUCAACAGAAGGUACUGACAUGAGGAUCACCCAUGUUUUAGUGUGGGCAUGUAGA [JMF's solution 71] (Eterna round: R96, puzzle: Exclusion NG 1) | – | 54.2 | – | – | – | – |
| UCGAUGUGAGGAUAUAUUUUUAUUAGUCCUUAUGUUUUAUAACUUGAGGAUCACCCAAGUAGAAGGCGCGACGU [JR_Ex2_Sub061] (Eterna round: R97, puzzle: Exclusion 2) | 32.6 | – | 34.6 | – | – | – |
| UUUAACAAGCCAGAUCCUCACAUGAGGAUCACCCAUGUGCUCGUCUGAUUUUGUACUAUCAUGUGAGUGAUAGUAUU [Level Boss var2-05] (puzzle: Sensor v3, turn-off variant 1) | – | – | – | 15.2 | 165 | 181 |
| CUUAAGUCAGGAUAUCAGGAGCAAGCUUAACGGGCACUCGCUGAGAAGGGACAUGAGGAUCACCCAUGUGCUCG [Eternabot (L2) Solution 17] (Eterna round: R97, puzzle: Exclusion 4) | 52.3 | – | 24.7 | – | – | – |
| UUGCCGCGAGGAUAUAUAGACGGGUUCAAUACGUGUCUCGGACUUGAGGAUCACCCAAGUAGAAGGCUUUUUAU [LRO-Excl2-12-mod _r4_621 by salish99] (Eterna round: R97, puzzle: Exclusion 2) | 15.5 | – | 14.7 | – | – | – |
| AUAAAGAGGCUAGGAUAUACAUCGGUGCGAAAAGACGUAAUCCUUUGAACAUGAGGAUCACCCAUGUAGAAGGAGCAGACGGAA [Quriored] (Eterna round: R96, puzzle: Exclusion NG 2) | 44.5 | 11.7 | 17.4 | – | – | – |
| AUAAAUAAGGAGGAUAUCGAAUCGGAAACGAUUCGAGAAGGCCUAACAUGAGGAUCACCCAUGUUCCUUAAAUA [Mat - Exclusion 6 - Eli Mod - D63] (puzzle: Exclusion 6) | – | – | – | 17.6 | 30.2 | 20.8 |
